Experimental data reported in paper PMC8371082, “En route to dynamic life processes by SNARE-mediated fusion of polymer and hybrid membranes” (Nature Communications, 2021).

Target: T1, Syntaxin-1A (183-288) (Rattus norvegicus, UniProt P32851 183-288)
T1 construct: Syntaxin-1A, Rattus norvegicus, residues 183-288
Experiment: complex assembly from purified proteins, isolated by ion-exchange chromatography; truncated syb-2, syntaxin-1A and SNAP-25a mixed at 1.5:1:1 molar ratio, incubated at 4 °C overnight, complex purified by ion-exchange chromatography in the presence of CHAPS
Details: both partners purified

T1 sequence (P32851 183-288): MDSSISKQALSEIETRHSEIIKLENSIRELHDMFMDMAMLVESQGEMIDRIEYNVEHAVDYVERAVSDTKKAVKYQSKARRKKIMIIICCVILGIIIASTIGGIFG

B1: Truncated synaptobrevin-2 (49-96) (domain or fragment, Rattus norvegicus, UniProt P63045 49-96, looked up)
chain: NVDKVLERDQKLSELDDRADALQAGASQFETSAAKLKRKYWWKNLKMM
notes: Synaptobrevin-2 (VAMP2), Rattus norvegicus, residues 49-96; also called truncated syb-2; C-terminal syb fragment
B1: binds.
